Data from publication PMC6414199, “Bim escapes displacement by BH3-mimetic anti-cancer drugs by double-bolt locking both Bcl-XL and Bcl-2” (eLife, 2019).

Experiments:
[1] = molecular target: mCerulean3-Bcl-XL (human) (UniProt Q07817); assay: FRET or BRET; FLIM-FRET in live MCF-7 cells: mCer3-Bcl-XL or mCer3-Bcl-2 stably expressed (donor), Venus-BH3 protein transiently expressed (acceptor); binding curves of FLIM-FRET efficiency against the Venus:mCer3 intensity ratio, 25 C; untreated, DMSO, 20 uM ABT-263 (18-24 h) or 1.25-20 uM A-1155463, A-1331852, ABT-263; R values interpolated at ratio 0.5 (Bcl-XL) or 0.25 (Bcl-2), ^VBad4E signal subtracted
mCerulean3-Bcl-2 (human) = mCerulean3-Bcl-2 (human) (UniProt P10415); assay: as above
[2] = molecular target: Bcl-XL single-cysteine mutant 152C, Alexa647-labelled (human) (UniProt Q07817); assay: FRET or BRET; purified Alexa568-labelled BH3 protein (10 nM) and Alexa647-labelled Bcl-XL (40 nM) with liposomes, ABT-263 titrated in; 37 C, 1 h; relative displacements, not absolute affinity
Bcl-XL single-cysteine mutant 152C, Alexa647-labelled (human), sequence (Q07817 other isoform, or with tags, fused parts or gaps mutant): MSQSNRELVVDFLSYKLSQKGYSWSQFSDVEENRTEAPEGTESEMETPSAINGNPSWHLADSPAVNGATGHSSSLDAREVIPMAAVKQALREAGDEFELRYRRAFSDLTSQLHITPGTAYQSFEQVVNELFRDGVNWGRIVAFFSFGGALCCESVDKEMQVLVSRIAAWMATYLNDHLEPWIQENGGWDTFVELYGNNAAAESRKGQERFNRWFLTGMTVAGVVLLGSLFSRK

mCerulean3-Bcl-XL (human), sequence (Q07817 whole entry): as the sequence (Q07817 other isoform, or with tags, fused parts or gaps mutant) above, with C152V counted along it
mCerulean3-Bcl-2 (human), sequence (P10415 whole entry): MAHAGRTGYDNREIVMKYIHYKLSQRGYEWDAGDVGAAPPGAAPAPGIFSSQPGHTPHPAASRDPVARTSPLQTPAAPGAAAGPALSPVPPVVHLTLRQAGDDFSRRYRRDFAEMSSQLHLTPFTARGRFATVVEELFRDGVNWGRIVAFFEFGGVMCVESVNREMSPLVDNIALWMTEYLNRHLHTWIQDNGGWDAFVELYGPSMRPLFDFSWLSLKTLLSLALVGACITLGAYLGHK
Venus-BimEL-dN (domain or fragment), sequence (O54918 whole entry, the tested form may be a part): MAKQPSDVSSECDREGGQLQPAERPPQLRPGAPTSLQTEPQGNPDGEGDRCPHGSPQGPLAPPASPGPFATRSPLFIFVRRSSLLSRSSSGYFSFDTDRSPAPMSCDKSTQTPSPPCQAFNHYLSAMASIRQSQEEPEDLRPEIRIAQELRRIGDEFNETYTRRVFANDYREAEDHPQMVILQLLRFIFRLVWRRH
Venus-BimEL-dCTS (domain or fragment), sequence (O54918 whole entry, the tested form may be a part): as above
Venus-BimEL BH3-2A, sequence (O54918 whole entry): as the sequence (O54918 whole entry, the tested form may be a part) above

| Substance | R (ABT-263), % of FRET signal left with 20 uM ABT-263 [1] [%] | R (ABT-263), % of FRET signal left with 20 uM ABT-263 (mCerulean3-Bcl-2 (human)) [%] | R (BH3-2A), % of FRET signal of the same construct without BH3-2A [1] [%] | R (BH3-2A), % of FRET signal of the same construct without BH3-2A (mCerulean3-Bcl-2 (human)) [%] | other results |
| --- | --- | --- | --- | --- | --- |
| Venus-BimEL-dCTS (domain or fragment) | 69 | 60 | – | – | – |
| Venus-Bad-Bim-I146Y BH3-2A | – | – | 46.6 | – | – |
| Venus-Bad-Bim-Q148R | 89.8 | 53.5 | – | – | – |
| Venus-BimEL-L185A BH3-2A (from UniProt O54918-1 1-196) (natural protein) | – | – | 159 | – | – |
| Venus-BimEL-L185G BH3-2A (from UniProt O54918-1 1-196) (natural protein) | – | – | 86.8 | – | – |
| Venus-BimEL-L185M BH3-2A (from UniProt O54918-1 1-196) (natural protein) | – | – | 90 | – | – |
| Bid single-cysteine mutant 126C (tBid, added as cBid), Alexa568-labelled (domain or fragment) | – | – | – | – | IC50 of ABT-263 for displacing the pair [2]: 400 nM |
| Venus-BimEL-L185F BH3-2A (from UniProt O54918-1 1-196) (natural protein) | – | – | 100 | – | – |
| Venus-Bad-Bim-I153M BH3-2A | – | – | 96.5 | 102 | – |
| Venus-Bad-Bim-I146Y-I153M BH3-2A | – | – | 56.8 | 42.6 | – |
| Venus-Bad with the BH3 region of Bim | 98 | 65.5 | – | – | – |
| Venus-Bad-Bim-Q148R BH3-2A | – | – | 74.5 | 56.9 | – |
| Venus-Bad-Bim-I146Y-I153M | 89 | 69.1 | – | – | – |
| Venus-Bad-Bim-I146Y-Q148R | 90.2 | 61.8 | – | – | – |
| Venus-Bad-Bim-I153M | 92.8 | 68.5 | – | – | – |
| Venus-BimEL BH3-2A (from UniProt O54918-1 1-196) (natural protein) | – | – | 81.4 | 66.8 | – |
| Venus-BimEL-L185S BH3-2A (from UniProt O54918-1 1-196) (natural protein) | – | – | 73.5 | – | – |

| Substance | R (ABT-263), % of FRET signal left with 20 uM ABT-263 [1] [%] | R (ABT-263), % of FRET signal left with 20 uM ABT-263 (mCerulean3-Bcl-2 (human)) [%] | R (BH3-2A), % of FRET signal of the same construct without BH3-2A [1] [%] | R (BH3-2A), % of FRET signal of the same construct without BH3-2A (mCerulean3-Bcl-2 (human)) [%] | other results |
| --- | --- | --- | --- | --- | --- |
| Venus-Bad-Bim-I146Y-Q148R BH3-2A | – | – | 50.5 | 37.7 | – |
| Venus-BimEL-L185P BH3-2A (from UniProt O54918-1 1-196) (natural protein) | – | – | 59 | – | – |
| Venus-BimEL-I181E BH3-2A (from UniProt O54918-1 1-196) (natural protein) | – | – | 49.2 | 47.2 | – |
| Venus-BimEL-I146Y-dCTS (domain or fragment) | 38.5 | 52.9 | – | – | – |
| Venus-Bad-Bim-I146Y | 83.2 | 53.2 | – | – | – |
| Venus-BimEL-I146Y BH3-2A (from UniProt O54918-1 1-196) (natural protein) | – | – | 71 | 54.2 | – |
| Venus-BimEL-Bad-dCTS | 40.2 | 12.5 | – | – | – |
| Venus-BimEL-dN (domain or fragment) | 90.8 | 90.5 | – | – | – |
| Venus-BimEL-Bad BH3-2A | – | – | 26.1 | – | – |
| Venus-BimEL-I188E BH3-2A (from UniProt O54918-1 1-196) (natural protein) | – | – | 67.2 | 47.5 | – |
| Venus-Bad-Bim BH3-2A | – | – | 70.2 | 54.9 | – |
| Venus-BimEL with the BH3 region of Bad | 60.5 | 65.8 | – | – | – |
| Venus-BimEL-V192E BH3-2A (from UniProt O54918-1 1-196) (natural protein) | – | – | 52.6 | 54.5 | – |
| Venus-BimEL-dCTS BH3-2A (domain or fragment) | – | – | 15.1 | 13.6 | – |
| Venus-BimEL-L185H BH3-2A (from UniProt O54918-1 1-196) (natural protein) | – | – | 49.1 | – | – |
| Venus-BimEL-L185R BH3-2A (from UniProt O54918-1 1-196) (natural protein) | – | – | 48.1 | – | – |
